Protein stability index data for 94 variants are collected here from the supplement of paper PMC10567573.

B1: EPB41L3 (parent)
chain: SDYISEFRFAPNHTKELEDKVIEL
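Note: lentivirally expressed fusions sorted by FACS into six bins by GFP to DsRed ratio, PSI derived from sequencing read proportions per bin multiplied by bin number.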

Variants of B1 are the subject of the data set. Put plainly: protein stability index of a GFP-peptide fusion (GPS, HEK-293T) (PSI 1-6); higher = more stable. The note with it: c terminus: a fixed tail appended.
In the case of SDYISEFRFAPNHTKELEDKMIEL [V21M], the protein stability index came out at 3.45.
As for SDYISEFRFAPNHTKELEDKHIEL [V21H], the protein stability index amounted to 1.85.
As for SDYISEFRFAPNHTKELEDKCIEL [V21C], the protein stability index is 1.88.
SDYISEFRFAPNHTKELEDKKIEL [V21K]: the protein stability index stood at 2.15.
For SDYISEFRFAPNHTKELEDKPIEL [V21P], the protein stability index was found to be 1.94.
Regarding SDYISEFRFAPNHTKELEDKLIEL [V21L], the protein stability index was 2.48.
Turning to SDYISEFRFAPNHTKELEDKQIEL [V21Q], the protein stability index was found to be 1.99.
Regarding SDYISEFRFAPNHTKELEDKTIEL [V21T], the protein stability index was found to be 2.18.
Turning to SDYISEFRFAPNHTKELEDKWIEL [V21W], the protein stability index was 2.14.
With SDYISEFRFAPNHTKELEDKIIEL [V21I], the protein stability index worked out at 2.22.
For the variant SDYISEFRFAPNHTKELEDKDIEL [V21D], the protein stability index worked out at 2.96.
As for SDYISEFRFAPNHTKELEDKRIEL [V21R], the protein stability index stood at 1.78.
As for SDYISEFRFAPNHTKELEDKFIEL [V21F], the protein stability index is 3.22.
In the case of SDYISEFRFAPNHTKELEDKNIEL [V21N], the protein stability index came to 2.38.
As to SDYISEFRFAPNHTKELEDKEIEL [V21E], the protein stability index was 2.54.
On to SDYISEFRFAPNHTKELEDKGIEL [V21G], for which the protein stability index worked out at 2.37.
As to SDYISEFRFAPNHTKELEDKYIEL [V21Y], the protein stability index came out at 2.14.
As for SDYISEFRFAPNHTKELEDKAIEL [V21A], the protein stability index was 2.31.
Consider SDYISEFRFAPNHTKELEDKSIEL [V21S], for which the protein stability index worked out at 2.05.
In the case of SDYISEFRFAPNHTKELEDKVILL [E23L], the protein stability index was found to be 1.93.
On to SDYISEFRFAPNHTKELEDKVIGL [E23G], for which the protein stability index was 1.72.
As for SDYISEFRFAPNHTKELEDKVIFL [E23F], the protein stability index was 3.17.
As to SDYISEFRFAPNHTKELEDKVIIL [E23I], the protein stability index amounted to 1.55.
Under SDYISEFRFAPNHTKELEDKVINL [E23N] stands 1.42; under SDYISEFRFAPNHTKELEDKVIAL [E23A], 1.9.
Take SDYISEFRFAPNHTKELEDKVIVL [E23V]: the protein stability index came out at 2.38.
As for SDYISEFRFAPNHTKELEDKVIWL [E23W], the figure is 1.46.
With SDYISEFRFAPNHTKELEDKVIRL [E23R], the protein stability index stood at 2.02.
Turning to SDYISEFRFAPNHTKELEDKVICL [E23C], the protein stability index is 1.38.
In the case of SDYISEFRFAPNHTKELEDKVISL [E23S], the protein stability index was 2.09.
Turning to SDYISEFRFAPNHTKELEDKVIQL [E23Q], the protein stability index is 2.05.
Consider SDYISEFRFAPNHTKELEDKVITL [E23T], for which the protein stability index worked out at 1.96.
Under SDYISEFRFAPNHTKELEDKVIPL [E23P] stands 1.82.
As for SDYISEFRFAPNHTKELEDKVIML [E23M], the figure is 1.92.
Under SDYISEFRFAPNHTKELEDKVIDL [E23D] stands 2.01; under SDYISEFRFAPNHTKELEDKVIHL [E23H], 2.18; under SDYISEFRFAPNHTKELEDKVIKL [E23K], 1.75.
With SDYISEFRFAPNHTKELEDKVIYL [E23Y], the protein stability index was determined as 2.38.
Regarding SDYISEFRFAPNHTKELEYKVIEL [D19Y], the protein stability index is 1.36.
With SDYISEFRFAPNHTKELEWKVIEL [D19W], the protein stability index was determined as 3.08.
With SDYISEFRFAPNHTKELEDGVIEL [K20G], the protein stability index came out at 1.93.
Take SDYISEFRFAPNHTKELEDQVIEL [K20Q]: the protein stability index is 1.89.
For the variant SDYISEFRFAPNHTKELEDWVIEL [K20W], the protein stability index amounted to 1.4.
As to SDYISEFRFAPNHTKELEDAVIEL [K20A], the protein stability index turned out to be 2.4.
Consider SDYISEFRFAPNHTKELEDMVIEL [K20M], for which the protein stability index was found to be 1.8.
SDYISEFRFAPNHTKELEDSVIEL [K20S]: the protein stability index came to 2.3.
Under SDYISEFRFAPNHTKELEDHVIEL [K20H] stands 1.79; under SDYISEFRFAPNHTKELEDYVIEL [K20Y], 1.87.
For the variant SDYISEFRFAPNHTKELEDVVIEL [K20V], the protein stability index came to 2.02.
For the variant SDYISEFRFAPNHTKELEDNVIEL [K20N], the protein stability index is 1.87.
Consider SDYISEFRFAPNHTKELEDEVIEL [K20E], for which the protein stability index was 2.48.
As for SDYISEFRFAPNHTKELEDIVIEL [K20I], the figure is 3.7; as for SDYISEFRFAPNHTKELEDFVIEL [K20F], 2.31; as for SDYISEFRFAPNHTKELEDRVIEL [K20R], 1.83.
Regarding SDYISEFRFAPNHTKELEDDVIEL [K20D], the protein stability index is 2.71.
Under SDYISEFRFAPNHTKELEDLVIEL [K20L] stands 2.28; under SDYISEFRFAPNHTKELEDTVIEL [K20T], 1.68; under SDYISEFRFAPNHTKELEDCVIEL [K20C], 2.13.
Under SDYISEFRFAPNHTKELEDPVIEL [K20P] stands 2.2.
For SDYISEFRFAPNHTKELEDKVIEF [L24F], the protein stability index worked out at 2.31.
Regarding SDYISEFRFAPNHTKELEDKVIEV [L24V], the protein stability index stood at 2.18.
With SDYISEFRFAPNHTKELEDKVIER [L24R], the protein stability index amounted to 2.69.
Consider SDYISEFRFAPNHTKELEDKVIEQ [L24Q], for which the protein stability index is 2.71.
For SDYISEFRFAPNHTKELEDKVIEA [L24A], the protein stability index was 2.42.
As for SDYISEFRFAPNHTKELEDKVIEG [L24G], the figure is 3.33.
For SDYISEFRFAPNHTKELEDKVIEW [L24W], the protein stability index turned out to be 2.44.
Consider SDYISEFRFAPNHTKELEDKVIEH [L24H], for which the protein stability index turned out to be 2.65.
Under SDYISEFRFAPNHTKELEDKVIET [L24T] stands 2.28; under SDYISEFRFAPNHTKELEDKVIEC [L24C], 3.05.
Under SDYISEFRFAPNHTKELEDKVIED [L24D] stands 3.11; under SDYISEFRFAPNHTKELEDKVIEY [L24Y], 2.08; under SDYISEFRFAPNHTKELEDKVIES [L24S], 2.69.
In the case of SDYISEFRFAPNHTKELEDKVIEE [L24E], the protein stability index is 2.65.
Under SDYISEFRFAPNHTKELEDKVIEM [L24M] stands 2.16; under SDYISEFRFAPNHTKELEDKVIEP [L24P], 2.31.
Turning to SDYISEFRFAPNHTKELEDKVIEN [L24N], the protein stability index amounted to 2.25.
Under SDYISEFRFAPNHTKELEDKVIEI [L24I] stands 2.12; under SDYISEFRFAPNHTKELEDKVIEK [L24K], 2.96; under SDYISEFRFAPNHTKELEDKVAEL [I22A], 3.26.
Turning to SDYISEFRFAPNHTKELEDKVLEL [I22L], the protein stability index amounted to 2.28.
For the variant SDYISEFRFAPNHTKELEDKVKEL [I22K], the protein stability index was found to be 2.51.
In the case of SDYISEFRFAPNHTKELEDKVSEL [I22S], the protein stability index came out at 3.18.
Consider SDYISEFRFAPNHTKELEDKVVEL [I22V], for which the protein stability index was 2.58.
Consider SDYISEFRFAPNHTKELEDKVFEL [I22F], for which the protein stability index worked out at 1.74.
SDYISEFRFAPNHTKELEDKVDEL [I22D]: the protein stability index was determined as 2.88.
Under SDYISEFRFAPNHTKELEDKVEEL [I22E] stands 2.94.
For the variant SDYISEFRFAPNHTKELEDKVYEL [I22Y], the protein stability index came to 2.29.
SDYISEFRFAPNHTKELEDKVREL [I22R]: the protein stability index turned out to be 3.03.
Turning to SDYISEFRFAPNHTKELEDKVNEL [I22N], the protein stability index came to 2.74.
SDYISEFRFAPNHTKELEDKVQEL [I22Q]: the protein stability index stood at 2.92.
For the variant SDYISEFRFAPNHTKELEDKVGEL [I22G], the protein stability index came to 2.79.
As to SDYISEFRFAPNHTKELEDKVHEL [I22H], the protein stability index was 2.55.
Turning to SDYISEFRFAPNHTKELEDKVMEL [I22M], the protein stability index stood at 2.31.
Regarding SDYISEFRFAPNHTKELEDKVPEL [I22P], the protein stability index was 2.58.
